According to patent US20200181677A1, “SCREENING SYSTEM AND METHODS FOR IDENTIFYING ENZYME SUBSTRATES AND MODULATORS OF ENZYME ACTIVITY” (Regents of the University of Minnesota, priority 2017, published 2020):
“Also recorded” adds a separate entry of the source.

Key:
PKCα catalytic domain [1] = target: T1, PKCα catalytic domain (Homo sapiens, UniProt P17252); assay: Kinase activity assay (ATP consumption, Kinase-Glo Max); format: biochemical; settings: for Kinase activity toward the peptide substrate, in words: 500 μM peptide, isolated catalytic domain
T1 construct: All activity assays were performed with 50 nM isolated catalytic domain in PKC Buffer; fused substrate peptide with the fluorophore next to it (N, cleaved yes); second fluorophore of the mCerulean/mCitrine pair (next to the catalytic domain) (N); FLAG; made in house; host or cells: Sf9 insect cells (pBiex1), then on-resin TEV cleavage
Procedure: All activity assays were performed with 50 nM isolated catalytic domain in PKC Buffer at 21-22° C. for 2-6 minutes. Experiments comparing the basal activity of different FRET sensors (FIG. 5A) were performed with 50 μM MBP peptide from GenScript. For all other activity experiments (FIGS. 3F, 4B, 5B, and 6B), the final peptide concentration was 500 μM. Activity was measured by monitoring ATP consumption with the Kinase-Glo Max Luminescence Assay Kit (Promega; Madison, Wis.). End-point luminescence was measured in white, 96-well plates using a M5e Spectramax spectrophotometer (Molecular Devices; San Jose, Calif.). For each experimental condition, ≥2 independent experiments were performed for ≥3 protein preparations (N≥6).
Kinase specific activity was inferred from the ATP consumed in phosphorylation reactions using the KINASE-GLO® Max Luminescence Assay Kit (Promega; Madison, Wis.). ATP depletion was monitored with the KINASE-GLO® Reagent, which uses luciferin, oxygen, and ATP as substrates in a reaction that produces oxyluciferin and light. The luminescent signal is linearly proportional to the amount of ATP remaining following the phosphorylation reaction.
Activity assays were performed using the catalytic domain (25-75 nM) and 500-μM peptide in PKC Buffer. Reactions were initiated by the addition of 250 μM ATP to a total reaction volume of 80 μL in U-bottom, white 96-well plates. Following a 3 minute incubation at 22° C., reactions were quenched and subsequent steps were performed as per instructions from the kit provider. End-point luminescence was measured in a FLEXSTATION® 3 plate reader (Molecular Devices). […] For each experimental condition, ≥2 independent measurements were performed for ≥3 protein preparations (N≥6).

PKCα catalytic domain [2] = target: T1, PKCα catalytic domain; assay: Steady-state FRET measurements of peptide sensors; format: binding; settings: for Binding strength of the peptide to the catalytic domain (steady-state FRET ratio), in words: 10 nm ER/K linker sensors; for Peptide interaction with the catalytic domain on addition of nucleotide (ΔFRET): 100 μM compound, alanine-substituted peptide sensors
Procedure: All experiments were performed with 30-50 nM protein in PKC Buffer at 21-22° C. Samples were prepared in tubes pre-coated with 0.1 mg/mL BSA to limit protein sticking to tube walls. Protein samples were excited at 430 nm (mCer) with an 8-nm band pass, and emission monitored from 450 to 650 nm. The FRET ratio was calculated from the ratio of the emission for mCit (525 nm) to mCer (475 nm). Final concentrations of 100 μM ATP, 100 μM ADP, 100 μM Sangivamycin, or BimI were added as indicated. For each experimental condition, ≥3 independent protein batches were used and at least two replicates were measured for each independent experiment (N≥3).
Protein-protein interactions in live cells using SPASM FRET sensors have been extensively monitored as described elsewhere (Sivaramakrishnan and Spudich, supra; Swanson et al., supra; and Malik et al., J Biol. Chem. 288:17167-17178, 2013). FRET measurements provide a direct measure of the binding strength of the substrate peptides to the kinase catalytic domain (Sivaramakrishnan and Spudich, supra; and Sommese et al., J. Biol. Chem. 292:2873-2880, 2017). Before each experiment, purified sensors were centrifuged (17645 g, 4° C.) to remove any insoluble protein. All experiments were performed with 50 nM protein in PKC Buffer at 21-22° C. Samples were prepared in tubes pre-coated with BSA (0.1 mg/ml) to limit protein loss through adsorption to tube walls. FRET measurements were performed using FluoroMax-4 fluorometer (Horiba Scientific). Sensors were loaded in a quartz cuvette (1 cm path length) and excited at 430 nm with an 8-nm band pass, and emission was monitored (4-nm band pass) from 450 to 650 nm. The FRET ratio was calculated from the ratio of the emission for mCitrine (525 nm) to mCerulean (475 nm). For each experimental condition, ≥2 experimental replicates were measured for ≥3 independent protein batches (N≥6).

PKCα catalytic domain [3] = target: T1, PKCα catalytic domain; assay: Time-resolved fluorescence decay (TCSPC) of peptide-catalytic domain FRET sensors; format: binding; settings: means ± SEM, N = 3; for Mol Fraction Bound / Mol Fraction Unbound: eGFP/mCherry sensors, PKC Buffer containing 100 μM ATP; for Mol Fraction Bound: A2/(A1+A2); for τ2: second lifetime of bi-exponential fit, τ1 fixed to donor linker control (2.56 ± 0.01 ns)
Procedure: FIG. 4A is a graph plotting a comparison between steady-state FRET and fractional binding for four alanine-containing peptide sensors. For fractional binding, fluorescence decay single photon counting data was fit to I(t)=A1e^−t/τ^1+A2e^−t/τ^2, where τ1 was set to the lifetime of a 10 nm ER/K linker control (see, TABLE 1). The mol fraction of the bound state(s) was calculated as A2/(A1+A2).
Time-resolved fluorescence decay measurements were taken by single photon counting (SPC-130-EM, Becker & Hickl) using a 485 nm sub-nanosecond pulse diode laser (PicoQuant), a 519 bandpass filter, and a PMH-100 photomultiplier module (Photonics Solutions) (Autry et al., J. Biol. Chem. 287:39070-39082, 2012). Sensors contained the eGFP and mCherry FRET pair, and all experiments were performed with 50-100 nM protein in PKC Buffer containing 100 μM ATP and 0.1 mg/mL BSA. Data were fit to the second exponential decay, I(t)=A1e^−t/τ^1+A2e^−t/τ^2, where τ1 was set to the lifetime of a 10 nm ER/K linker control. Each experimental condition was collected from three independent protein batches (N=3).
Time-correlated single photon counting (TCSPC) was used to test whether changes in steady-state FRET reflect changes in fractional binding of the peptide to the catalytic domain (FIG. 1). TCSPC is a method for measuring time-resolved fluorescence that provides information on complex decay kinetics and population states (Lakowicz, Principles of Fluorescence Spectroscopy, 3rd ed., Springer, New York, 2006). Using this method, the relative population of interacting to non-interacting species was measured for four peptide sensors displaying a range of steady-state FRET ratios (FIG. 2).

NRFARKGALRQKNV [Peptide 14]
Inhibition of ATP turnover of the catalytic domain for serine-containing peptide #14 (PKCα catalytic domain [1]; equimolar competing peptide): significantly better at inhibiting catalytic activity | Binding strength of the peptide to the catalytic domain (steady-state FRET ratio), in words (PKCα catalytic domain [2]): bound more strongly

Nc1ncnc2c1ncn2[C@@H]1O[C@H](COP(=O)(O)OP(=O)(O)O)[C@@H](O)[C@H]1O [ADP, reference compound]
Peptide interaction with the catalytic domain on addition of nucleotide (ΔFRET) (PKCα catalytic domain [2]): also occurred

NRFARKGDLRQKNV [Peptide S14D]
Binding strength of the peptide to the catalytic domain (steady-state FRET ratio), in words (PKCα catalytic domain [2]): decreased affinity

2: peptide substrate RVVGGSLRGAQ, SEQ ID NO:6, from PTP1B [Peptide 2]
Kinase activity toward the peptide substrate, in words (PKCα catalytic domain [1]; listed as p2): high kinase activity

8: peptide substrate IVRKATLRRLL, SEQ ID NO:18, from EGF Receptor; Ala-substituted sensor form SEQ ID NO:17 [Peptide 8]
Mol Fraction Bound (PKCα catalytic domain [3]): 0.11 ± 0.01 | Mol Fraction Unbound (PKCα catalytic domain [3]): 0.89 ± 0.01 | τ2 (PKCα catalytic domain [3]): 0.66 ± 0.06 ns | Binding strength of the peptide to the catalytic domain (steady-state FRET ratio), in words (PKCα catalytic domain [2]): medium binding

1: peptide substrate ADKRRSVRIGA, SEQ ID NO:4, from Kit/SCRF; Ala-substituted in FRET sensors [Peptide 1]
Kinase activity toward the peptide substrate, in words (PKCα catalytic domain [1]): high activity

NC(=O)c1cn([C@@H]2O[C@H](CO)[C@@H](O)[C@H]2O)c2ncnc(N)c12 [Sangivamycin, reference compound]
Peptide interaction with the catalytic domain on addition of nucleotide (ΔFRET) (PKCα catalytic domain [2]): also occurred

9: peptide substrate ARKRERTYSFGHHA, SEQ ID NO:20, Optimized AKT Sub. [Peptide 9]
Binding strength of the peptide to the catalytic domain (steady-state FRET ratio), in words (PKCα catalytic domain [2]): medium binding

Nc1ncnc2c1ncn2[C@@H]1O[C@H](COP(=O)(O)OP(=O)(O)OP(=O)(O)O)[C@@H](O)[C@H]1O [ATP, reference compound]
Peptide interaction with the catalytic domain on addition of nucleotide (ΔFRET) (PKCα catalytic domain [2]): significant increase

12: peptide substrate RRFKRQGSFFYFF, SEQ ID NO:26, Optimized PKCζ Sub. [Peptide 12]
Kinase activity toward the peptide substrate, in words (PKCα catalytic domain [1]; listed as p12): lowest kinase activity; also recorded: poor activity | Effect on catalytic turnover with low affinity-high activity peptide #6 (PKCα catalytic domain [1]; equimolar peptides #6 and #12): essentially inhibited

10: peptide substrate RRRRSIIFI, SEQ ID NO:22, Optimized PKA Sub.; Ala-substituted in FRET sensors [Peptide 10]
Kinase activity toward the peptide substrate, in words (PKCα catalytic domain [1]): poor activity | Mol Fraction Bound (PKCα catalytic domain [3]): 0.16 ± 0.01 | Mol Fraction Unbound (PKCα catalytic domain [3]): 0.84 ± 0.01 | τ2 (PKCα catalytic domain [3]): 0.83 ± 0.06 ns

11: peptide substrate FKLKRKGTFKKFA, SEQ ID NO:35, Optimized PKCβ Sub.; Ala-substituted sensor form SEQ ID NO:23 [Peptide 11]
Kinase activity toward the peptide substrate, in words (PKCα catalytic domain [1]): poor activity | Activity of the peptide FRET sensor for the same substrate (PKCα catalytic domain [1]; 10 nm linker sensors, 50 μM MBP peptide): much lower activity | Mol Fraction Bound (PKCα catalytic domain [3]): 0.15 ± 0.01 | Mol Fraction Unbound (PKCα catalytic domain [3]): 0.85 ± 0.01 | τ2 (PKCα catalytic domain [3]): 0.88 ± 0.06 ns

3: peptide substrate LAGGFSFKKNK, SEQ ID NO:8, from MARCKS (KLAGFSFKKNK) [Peptide 3]
Kinase activity toward the peptide substrate, in words (PKCα catalytic domain [1]): high activity

6: peptide substrate ASQKRPSQRH, SEQ ID NO:14, from Myelin Basic Protein; Ala-substituted in FRET sensors [Peptide 6]
Mol Fraction Bound (PKCα catalytic domain [3]): 0.08 ± 0.01 | Mol Fraction Unbound (PKCα catalytic domain [3]): 0.92 ± 0.01 | τ2 (PKCα catalytic domain [3]): 0.49 ± 0.05 ns

CN(C)CCCn1cc(C2=C(c3c[nH]c4ccccc34)C(=O)NC2=O)c2ccccc21 [BimI, Bisindolylmaleimide I, reference compound]
Effect on the ATP-dependent substrate-kinase interaction (steady-state FRET) (PKCα catalytic domain [2]; peptide #8 and #11 sensors, 100 μM ATP, BimI titration): abrogated
